According to patent publication US20260210939A1, “MODIFIED OLFACTORY RECEPTORS” (GIVAUDAN SA, priority 2022, published 2026):

These compounds were tested against T1, OR7D4 (Homo sapiens, UniProt Q8NG98, D296E/E302K/G299D) (assay: CRE-luciferase assay, HEK cells expressing OR7D4 (wild-type / modified C-terminus)). Conditions: not given.
T1 construct: Improved functional expression of modified OR-genes containing the truncated, optimized C-terminus; expressed in transfected cells
T1 sequence (Q8NG98 with tags, fused parts or gaps D296E/G299D/E302K): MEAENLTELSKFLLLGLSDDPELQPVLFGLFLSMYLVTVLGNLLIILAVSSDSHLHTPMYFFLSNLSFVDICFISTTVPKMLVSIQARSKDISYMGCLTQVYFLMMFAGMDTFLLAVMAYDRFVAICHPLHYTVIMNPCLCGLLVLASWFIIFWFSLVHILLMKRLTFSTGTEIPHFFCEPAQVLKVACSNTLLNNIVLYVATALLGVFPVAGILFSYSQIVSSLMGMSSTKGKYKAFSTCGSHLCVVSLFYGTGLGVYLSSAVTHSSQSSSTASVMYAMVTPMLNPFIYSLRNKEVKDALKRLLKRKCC
Format: cell-based
Description: Random permutations of the general C-terminal sequence RN[KR][EDQ][VMIL][KR]KA[LIV][KRH][KR][LI][LIF][KRG][KR][KR]CC (SEQ ID NO: 822) linked to OR7D4 were generated based on degenerate oligonucleotides for the C-terminal domain. For this experiment, the MfeI/XhoI fragment from pcDNA3.1(+)-mmLucy-FLAG-rho-OR7D4 containing the CMV promoter and the OR coding sequence was used to replace the EcoRI/SalI fragment of pRDVCCB-CMV-dCas9-VPH-2A-Blast (Cellecta, Inc., Mountain View, USA). Complementary degenerate oligonucleotides were then used to replace the coding region of the C-terminal domain of […] (between Bsu36I and NotI). Random clones were selected, sequenced and tested for a correct open reading frame. A total of 55 clones were obtained with the correct open reading frame of […] and a permutation of the general sequence RN[KR][EDQ][VMIL][KR]KA[LIV][KRH][KR][LI][LIF][KRG][KR][KR]CC (SEQ ID NO: 822) as the C-terminal domain. All the different clones were compared to the wild-type sequence by the functional assay in HEK cells with the ligand Androstenone tested in a dose-response test.

Compound	Comments on efficacy
C[C@]12CCC(=O)C[C@@H]1CC[C@@H]1[C@@H]2CC[C@]2(C)C=CC[C@@H]12 [Androstenone, reference compound]	3-fold lower

Same assay, conditions: OR7D4 variant, 0.1 μM Androstenone

Compound	Fold induction luciferase
SEQ ID NO: 264 (RNKDIKKAVKKLIKKKCC; source 1..18: note = C-terminal domain sequence)	3.79
SEQ ID NO: 285 (RNKELKKALRRLIGRRCC; source 1..18: note = C-terminal domain sequence)	3.18
SEQ ID NO: 288 (RNKEVRKALKKLFGKKCC; source 1..18: note = C-terminal domain sequence)	17.84

Same assay, conditions: OR7D4 variant, 1 μM Androstenone

Compound	Fold induction luciferase
SEQ ID NO: 264 (RNKDIKKAVKKLIKKKCC; source 1..18: note = C-terminal domain sequence)	23.26
SEQ ID NO: 285 (RNKELKKALRRLIGRRCC; source 1..18: note = C-terminal domain sequence)	22.10
SEQ ID NO: 288 (RNKEVRKALKKLFGKKCC; source 1..18: note = C-terminal domain sequence)	28.81

Same assay, conditions: OR7D4 variant, Androstenone

Compound	EC2 (concentration for 2-fold luciferase induction)	EC2 Fold-improvement vs. wild-type
SEQ ID NO: 255 (RNREVKKAIHKLIGRKCC; source 1..18: note = C-terminal domain sequence)	0.010 µM	164.23
SEQ ID NO: 256 (RNREVRKAVHRLFKRKCC; source 1..18: note = C-terminal domain sequence)	0.004 µM	385.42
SEQ ID NO: 257 (RNKEMKKAIHKLFGKKCC; source 1..18: note = C-terminal domain sequence)	0.010 µM	172.96
SEQ ID NO: 258 (RNRDVKKAVHKLFRRKCC; source 1..18: note = C-terminal domain sequence)	0.011 µM	152.59
SEQ ID NO: 261 (RNRDVRKALRRILRRRCC; source 1..18: note = C-terminal domain sequence)	0.004 µM	427.69
SEQ ID NO: 262 (RNKDVRKAVRKLIRRRCC; source 1..18: note = C-terminal domain sequence)	0.010 µM	165.32
SEQ ID NO: 264 (RNKDIKKAVKKLIKKKCC; source 1..18: note = C-terminal domain sequence)	0.048 µM	36.01
SEQ ID NO: 267 (RNRDVKKAVRRLFRRKCC; source 1..18: note = C-terminal domain sequence)	0.006 µM	266.97
SEQ ID NO: 268 (RNREVRKALRRIIRKRCC; source 1..18: note = C-terminal domain sequence)	0.003 µM	545.04
SEQ ID NO: 272 (RNRDLRKALRRIFKRRCC; source 1..18: note = C-terminal domain sequence)	0.013 µM	136.52
SEQ ID NO: 273 (RNRDVRKAIKKLIRKRCC; source 1..18: note = C-terminal domain sequence)	0.005 µM	373.12
SEQ ID NO: 275 (RNRDVRKAIRKLLKRKCC; source 1..18: note = C-terminal domain sequence)	0.005 µM	323.20
SEQ ID NO: 278 (RNRDVRKALRRLFKKRCC; source 1..18: note = C-terminal domain sequence)	0.003 µM	522.64
SEQ ID NO: 279 (RNKELKKALRKLIGKKCC; source 1..18: note = C-terminal domain sequence)	0.098 µM	17.53
SEQ ID NO: 280 (RNREMRKAIKKIIKKKCC; source 1..18: note = C-terminal domain sequence)	0.009 µM	187.06
SEQ ID NO: 282 (RNRDVKKAIRRLFRRRCC; source 1..18: note = C-terminal domain sequence)	0.007 µM	250.61
SEQ ID NO: 284 (RNREMRKALRRLFRKRCC; source 1..18: note = C-terminal domain sequence)	0.003 µM	545.04
SEQ ID NO: 285 (RNKELKKALRRLIGRRCC; source 1..18: note = C-terminal domain sequence)	0.042 µM	41.00
SEQ ID NO: 287 (RNREVKKAVKKLIRRKCC; source 1..18: note = C-terminal domain sequence)	0.012 µM	144.06
SEQ ID NO: 288 (RNKEVRKALKKLFGKKCC; source 1..18: note = C-terminal domain sequence)	0.006 µM	294.52

The next lines start with the values.

EC2 (concentration for 2-fold luciferase induction)	EC2 Fold-improvement vs. wild-type	Compound
0.011 µM	156.27	SEQ ID NO: 254 (RNREMRKALHRLLGKKCC; source 1..18: note = C-terminal domain sequence)
0.020 µM	84.30	SEQ ID NO: 259 (RNRDMKKAVHKLFGKRCC; source 1..18: note = C-terminal domain sequence)
0.043 µM	39.74	SEQ ID NO: 260 (RNKELRKALHKLLGRKCC; source 1..18: note = C-terminal domain sequence)
0.006 µM	304.87	SEQ ID NO: 263 (RNRDVRKAVRRLFRKRCC; source 1..18: note = C-terminal domain sequence)
0.022 µM	78.45	SEQ ID NO: 265 (RNRELRKAVRRLFKRRCC; source 1..18: note = C-terminal domain sequence)
0.041 µM	41.85	SEQ ID NO: 266 (RNKELRKAVRKIIKKKCC; source 1..18: note = C-terminal domain sequence)
0.026 µM	65.26	SEQ ID NO: 269 (RNKDIRKAVKKIFRRKCC; source 1..18: note = C-terminal domain sequence)
0.012 µM	145.78	SEQ ID NO: 270 (RNKDVRKAVRRLIKRKCC; source 1..18: note = C-terminal domain sequence)
0.030 µM	56.86	SEQ ID NO: 271 (RNRDLRKAVRKLFKKKCC; source 1..18: note = C-terminal domain sequence)
0.095 µM	18.20	SEQ ID NO: 274 (RNKELKKAIKRILKKKCC; source 1..18: note = C-terminal domain sequence)
0.034 µM	50.55	SEQ ID NO: 276 (RNRDLRKAVRRIFKKRCC; source 1..18: note = C-terminal domain sequence)
0.005 µM	325.72	SEQ ID NO: 277 (RNRDVRKAVRKLFKRRCC; source 1..18: note = C-terminal domain sequence)
0.029 µM	60.06	SEQ ID NO: 281 (RNKEIKKAIKKIIKKRCC; source 1..18: note = C-terminal domain sequence)
0.013 µM	128.83	SEQ ID NO: 283 (RNREVKKAVKKLIGKRCC; source 1..18: note = C-terminal domain sequence)
0.003 µM	545.04	SEQ ID NO: 286 (RNRDVKKALRKLIGKRCC; source 1..18: note = C-terminal domain sequence)
0.014 µM	119.65	SEQ ID NO: 289 (RNKEIRKALRRLFGKKCC; source 1..18: note = C-terminal domain sequence)

Same assay, conditions: changed C-term. vs wild-type

Compound	Fold-improvement potency	Fold-improvement threshold
C[C@]12CCC(=O)C[C@@H]1CC[C@@H]1[C@@H]2CC[C@]2(C)C=CC[C@@H]12 [Androstenone, reference compound]	66	265

Same assay, conditions: wild-type vs SEQ ID NO: 86

Compound	activation of OR7D4 variants
C[C@]12CC[C@@H](O)C[C@@H]1CC[C@@H]1[C@@H]2CC[C@]2(C)C=CC[C@@H]12 [androstenol, reference compound]	can only activate the modified version of the receptor
